Measurements as given in the supplement of paper PMC10201428.
± gives the standard deviation of the averaged measurements.

B1: library; a variant is named by its letters at N, in order (parent)
chain: AATGTTGTTGATGCAACCATAAAGTGATATTTAATAATTATTTATAATCAGCAACTTAACCACAAAACAACCATATATTGATATNTCACAAAACAACCATAANTTGATATTTTTGTGAATCGAGTATTTCAGCAAAACTACTGCAGTAAGAA

What was measured:
[1] = variants of: B1; test: relative integration efficiency (T-LR orientation) vs wild-type transposon end (log2 (normalized fold change)); transposon end mutated: left end; higher = more efficient transposition; details: with VchCAST RNA-guided transposition machinery (E. coli BL21(DE3) host, lacZ target)
In short: (§1)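 Pools of 1549 left-end or 1849 right-end barcoded transposon variants were cloned into a pUC57 mini-transposon donor and co-transformed into E. coli BL21(DE3) with a T7-driven effector plasmid carrying a CRISPR array, tniQ-cas8-cas7-cas6 and tnsA-tnsB-tnsC. Plating used 0.1 mM IPTG at 37°C for 18 h, and input plasmids and genomic integration junctions were PCR-amplified for Illumina sequencing, with two biological output replicates and four reference barcodes. Relative integration efficiency is the log-transformed fold change of output over input barcode abundance, normalised to the reference barcodes.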

[2] = variants of: B1; test: relative integration efficiency (T-RL orientation) vs wild-type transposon end (log2 (normalized fold change)); transposon end mutated: left end; higher = more efficient transposition; details: with VchCAST RNA-guided transposition machinery (E. coli BL21(DE3) host, lacZ target)
In short: as §1

Variant | relative integration efficiency (log2) [1] | relative integration efficiency (log2) [2]
CG T76A A77T | -0.19 ± 0.3 | 0.117 ± 0.012
CG T30A T31A | 0.174 ± 0.14 | 0.109 ± 0.27
CG T41G T42G T43G A44C | 0.146 ± 0.074 | -0.195 ± 0.099
CG T39G | 0.304 ± 0.45 | 0.00997 ± 0.055
CG T39A | 0.147 ± 0.58 | 0.0624 ± 0.071
CG T39C | 0.161 ± 0.47 | 0.0645 ± 0.011
AG T84G T86G C87A | 0.381 ± 0.25 | 0.0958 ± 0.22
CG T12A T30A T31C T32A A77C T86G | -0.709 ± 0.52 | -0.451 ± 0.25
CG T12A G13A T30A T31C A77C T86G | -1.07 ± 0.047 | -0.538 ± 0.15
CG T78G | 0.198 ± 0.14 | -0.0793 ± 0.054
CG T78A | -0.0877 ± 0.12 | 0.0885 ± 0.016
CG T78C | 0.27 ± 0.3 | -0.0794 ± 0.1
CG T32A | 0.415 ± 0.98 | 0.178 ± 0.032
CG T32G | -0.347 ± 0.098 | -0.146 ± 0.14
CG T32C | 0.089 ± 0.39 | -0.0923 ± 0.12
CG T39A A40T | 0.255 ± 0.22 | 0.244 ± 0.039
AG T31G T111G | -0.732 ± 0.38 | -0.99 ± 0.44
CG T30A T31C A77C | -0.793 ± 0.14 | -0.48 ± 0.16
AG T84G | -0.223 ± 1.1 | -0.407 ± 0.3
CG T42A T43A A44T T45A | 0.262 ± 0.049 | 0.271 ± 0.16
CG T39G A40C T41G T43A A44C A47G C49T G51A A53T C55G A58C A59G C60A | -5.96 ± 2.7 | -4.12 ± 1.1
CG T31A T32A | -0.442 ± 0.33 | -0.131 ± 0.028
CG T41G T42G | 1.22 ± 0.23 | 0.0624 ± 0.23
CG T28G A29C | -1.26 ± 0.97 | -1.24 ± 0.55

Variant | relative integration efficiency (log2) [1] | relative integration efficiency (log2) [2]
CG T56A | 0.188 ± 0.11 | -0.167 ± 0.0046
CG T56G | -0.0431 ± 0.26 | -0.112 ± 0.12
CG T56C | -0.129 ± 0.16 | -0.2 ± 0.061
CG T12G | -0.01 ± 0.2 | -0.917 ± 0.57
CG T12C | -0.943 ± 0.57 | -0.0642 ± 0.048
CG T57A | -0.137 ± 0.84 | 0.139 ± 0.15
CG T57C | -0.422 ± 0.61 | -0.546 ± 0.31
CG T57G | -1.94 ± 0.91 | -1.33 ± 0.56
CG T32A A33T | 0.105 ± 0.075 | -0.145 ± 0.16
CG T76G A77C T78G T79G | -3.06 ± 1.4 | -2.26 ± 0.77
CG T45A A46T | -0.208 ± 0.19 | 0.192 ± 0.024
CG T45G | -0.109 ± 0.19 | -0.0406 ± 0.053
CG T45A | 0.403 ± 0.63 | -0.0115 ± 0.062
CG T45C | -0.0724 ± 0.056 | -0.326 ± 0.093
CG T104A T105A | -0.853 ± 0.48 | -0.642 ± 0.47
CG T38A T39A | 0.516 ± 0.23 | 0.474 ± 0.18
CG T105A G106C A107T T108A | -1.32 ± 0.25 | -1.6 ± 0.76
GG T31A T32A A33T T86A C87G T111A T112A T113A | -0.524 ± 0.35 | -0.495 ± 0.72
CG T28A T82A T108A | -2.22 ± 2.1 | -1.09 ± 0.57
GG T30A T31A T32A A33T T84A T86A C87G T110A T111A T112A T113A | -1.77 ± 2.3 | -1.15 ± 0.64
CG T39A A40T T41A T42A | 0.453 ± 0.17 | 0.475 ± 0.019
CG T78A T79A | -0.257 ± 0.57 | -0.058 ± 0.35
CG T25A T79A T105A | -3.4 ± 0.079 | -1.88 ± 0.86
CG T25A G26C | -1.33 ± 1.5 | -1.73 ± 0.85

Variant | relative integration efficiency (log2) [1] | relative integration efficiency (log2) [2]
CG T84A | -0.0315 ± 0.47 | -0.0633 ± 0.033
CG T84G | -0.943 ± 0.55 | -0.591 ± 0.3
CG T84C | -0.172 ± 0.0094 | -0.158 ± 0.056
TG T76A T78G C87A | 0.336 ± 0.26 | 0.505 ± 0.035
CG T20A T74A T100A | -1.01 ± 0.38 | -1.12 ± 0.54
CG T104G T105G | -1.76 ± 0.75 | -1.3 ± 0.71
CG T104G T105G G106T A107C | -2.25 ± 1.7 | -2.11 ± 0.66
CG T82G A83C | -1.19 ± 0.87 | -1.4 ± 0.66
CG T76A | 0.179 ± 0.069 | 0.0494 ± 0.062
CG T76G | -0.699 ± 0.91 | -0.903 ± 0.5
CG T76C | -1.37 ± 0.51 | -1.06 ± 0.46
CG T28A A29T T30A T31A | -0.974 ± 0.69 | -1.12 ± 0.46
CG T28A A29T | -0.0554 ± 0.23 | -0.309 ± 0.44
CG T48G C49A | -0.72 ± 0.49 | -0.681 ± 0.47
CG T35G A36C | -0.467 ± 0.11 | -0.318 ± 0.071
CG T57A A58T | -3.38 ± 2.1 | -0.792 ± 0.44
CG T39G A40C | -0.0204 ± 0.26 | -0.535 ± 0.23
CG T42A T43A | 0.176 ± 0.54 | -0.0273 ± 0.049
CG T43A A44T T45A A46T | -1.06 ± 1.4 | 0.138 ± 0.031
CG T38G T39G | 0.139 ± 0.043 | -0.161 ± 0.039
CG T30G T84G T110G | -2.2 ± 0.51 | -1.92 ± 0.8
CG T35A A36T A37T T38A | 0.322 ± 0.34 | 0.354 ± 0.019
CG T32G A33C T86G C87A T112G T113G | -0.849 ± 0.54 | -0.843 ± 0.24
CG T57A A58T A59T C60G | 1.28 ± 0.42 | 0.281 ± 1

Variant | relative integration efficiency (log2) [1] | relative integration efficiency (log2) [2]
CG T28G A29C T30G T31G | -2.32 ± 0.87 | -1.98 ± 0.8
GG T82A A83T T84A | -0.904 ± 0.77 | -0.974 ± 0.49
CG T12A G13A T30A T31C T32A T86G | -0.319 ± 0.034 | -0.119 ± 0.27
CG T12A G13A T30A T31C T32A A77C | -1.73 ± 0.73 | -0.517 ± 0.24
CG T20G | -0.668 ± 0.64 | -0.834 ± 0.6
CG T20C | -1.08 ± 0.45 | -1.07 ± 0.49
CG T20A | -0.647 ± 0.083 | -0.343 ± 0.17
CG T31A T32A A33T A34T | 0.0738 ± 0.43 | -0.0923 ± 0.16
CG T39C A40T T41G T43G A46T A47G C49T G51T A54C C55A | -4.29 ± 1.2 | -2.86 ± 0.84
CG T56A T57A A58T A59T | -1.3 ± 0.89 | -1.52 ± 0.76
CG T12A G13A T32A A77C T86G | 0.117 ± 0.45 | -0.0481 ± 0.05
CG T12G G13T | -0.641 ± 0.4 | -0.29 ± 0.15
CG T41A T42A | 0.775 ± 0.0053 | 0.864 ± 0.047
CG T12A G13A T31C A77C T86G | -0.319 ± 0.56 | -0.196 ± 0.058
CG T35G A36C A37C T38G | 0.209 ± 0.74 | 0.203 ± 0.092
AG T82G A83C T84G | -1.31 ± 0.38 | -1.7 ± 0.88
CG T42G T43G | 0.178 ± 0.27 | -0.123 ± 0.14
CG T43G A44C | 0.129 ± 0.046 | -0.0854 ± 0.05
CG T20A A21T | -0.406 ± 0.45 | -0.483 ± 0.31
CG T45C T48C G51T C52A C55G T57G A59T C60A C61T A62T C63T A66C A67T | -0.402 ± 1 | -5.71 ± 1.3
CG T38G | 0.138 ± 0.0017 | -0.123 ± 0.065
CG T38A | 0.0433 ± 0.41 | -0.123 ± 0.054
CG T38C | 0.236 ± 0.068 | -0.0081 ± 0.1
CG T100G A101C | -3.81 ± 1.3 | -2.16 ± 0.7

Variant | relative integration efficiency (log2) [1] | relative integration efficiency (log2) [2]
CG T30A T31A T32A A33T | -0.351 ± 0.54 | -0.346 ± 0.29
CG T25G G26T A27C T28G | -2.73 ± 1.1 | -2.55 ± 0.99
CG T78G T79G G80T A81C | -3.25 ± 1.3 | -2.44 ± 0.79
CG T25A | -0.158 ± 0.68 | -0.346 ± 0.3
CG T25C | 0.0625 ± 0.14 | -0.137 ± 0.12
CG T25G | -0.618 ± 1 | -0.455 ± 0.37
CG T43G A44C A46G T48A C49G A50C C52A A53G T56A T57C A58C | -2.81 ± 2.2 | -2.55 ± 1
CG T12A G13A T30A T31C T32A | -1.04 ± 0.35 | -0.578 ± 0.26
CG T48A C49A A50T C52T A53G C55G T56C T57G A59G C60T C61A A66C A67C | 0.607 ± 0.81 | -5.05 ± 1.9
CG T25G T79G T105G | -3.03 ± 1.7 | -2.73 ± 1.2
CG T20G A21C | -2.47 ± 0.87 | -2.18 ± 0.77
TG T76A A77G C87T | 0.266 ± 0.15 | -0.247 ± 0.35
CG T32A A33T A34T T35A | 0.141 ± 0.33 | -0.0669 ± 0.14
CG T48G C49A A50C G51T C52A A53C A54C C55A T56G T57G A58C | -3.04 ± 1.4 | -2.79 ± 0.63
CG T100A A101T | -0.623 ± 0.79 | -0.364 ± 0.49
CG T79G G80T A81C T82G | -2.43 ± 1.1 | -2.68 ± 0.95
CG T35C | -0.112 ± 0.24 | -0.0902 ± 0.18
CG T35G | 0.136 ± 0.33 | 0.163 ± 0.11
CG T35A | 0.179 ± 0.22 | 0.0694 ± 0.048
CG T30A T31C T32A | -0.303 ± 0.45 | -0.29 ± 0.22
